# Measured values published in article PMC7062188, “The crystal structure of human forkhead box N1 in complex with DNA reveals the structural basis for forkhead box family specificity”.
# T1: FOXN1 1-614 (human, UniProt O15353 1-614)
# T1 sequence: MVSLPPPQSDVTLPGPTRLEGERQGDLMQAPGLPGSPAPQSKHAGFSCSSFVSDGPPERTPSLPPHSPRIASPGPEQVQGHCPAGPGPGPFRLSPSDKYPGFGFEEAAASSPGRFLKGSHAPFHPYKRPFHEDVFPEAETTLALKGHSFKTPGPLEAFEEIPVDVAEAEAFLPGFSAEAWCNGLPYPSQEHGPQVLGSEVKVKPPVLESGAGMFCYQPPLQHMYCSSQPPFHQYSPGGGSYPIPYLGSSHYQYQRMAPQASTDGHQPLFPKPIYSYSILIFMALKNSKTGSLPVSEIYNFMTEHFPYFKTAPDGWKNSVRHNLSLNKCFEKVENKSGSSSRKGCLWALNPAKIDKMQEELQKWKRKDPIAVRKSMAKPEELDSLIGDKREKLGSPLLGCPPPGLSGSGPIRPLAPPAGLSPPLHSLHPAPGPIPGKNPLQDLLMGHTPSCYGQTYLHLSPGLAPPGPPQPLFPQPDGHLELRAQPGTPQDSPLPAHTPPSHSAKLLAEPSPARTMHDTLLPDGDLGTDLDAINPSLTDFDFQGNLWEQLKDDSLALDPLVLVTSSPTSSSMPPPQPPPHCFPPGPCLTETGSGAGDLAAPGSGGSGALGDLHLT
# T2: FOXN1 forkhead domain (human, UniProt O15353 270-366)
# T2 sequence: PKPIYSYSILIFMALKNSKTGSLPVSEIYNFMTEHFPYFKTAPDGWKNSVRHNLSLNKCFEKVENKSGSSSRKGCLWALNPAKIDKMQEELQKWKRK
# B1: tandem FKH EMSA probe (dsDNA)
# DNA 1: AGCATAAACAACAGAGCGATAAACCAGG
# DNA 2: CCTGGTTTATCGCTCTGTTGTTTATGCT
# B2: tandem FKH FP probe (dsDNA)
# DNA 1: GCAGCATAAACAACAGAGCGATAAACCAGGG
# DNA 2: CCCTGGTTTATCGCTCTGTTGTTTATGCTGC
# B3: Psmb11 FHL 13-mer (dsDNA)
# DNA 1: TGAAGACGCCACC
# DNA 2: GGTGGCGTCTTCA
# B4: PSMA7 tandem FHL EMSA probe (dsDNA)
# DNA 1: GCAGCAGACGCAACAGAGCGAGACGCCAGGG
# DNA 2: CCCTGGCGTCTCGCTCTGTTGCGTCTGCTGC
# B5: tandem FHL FP probe (dsDNA)
# DNA 1: GCAGCAGACGCAACAGAGCGAGACGCCAGGG
# DNA 2: CCCTGGCGTCTCGCTCTGTTGCGTCTGCTGC
# How the values were obtained:
# FOXN1 1-614 [1] = biological target: T1, FOXN1 1-614; assay: EMSA; apparent Kd; EMSA: 50 mM Tris-HCl pH 7.5, 25 mM NaCl, 0.5 mM EDTA, 0.1% Tween 20, 2 mM DTT, 5% glycerol, 30 min room temperature; FP: 10 mM HEPES pH 7.5, 50 mM NaCl, 1 mM TCEP, 10 nM probe; conditions: protein: recombinant; tags: His tag (pNIC28-Bsa4), cleaved with TEV; label: 32P on forward strand (5', T4 PNK); blunt
# FOXN1 1-614 [2] = biological target: T1, FOXN1 1-614; assay: fluorescence polarization; EMSA: 50 mM Tris-HCl pH 7.5, 25 mM NaCl, 0.5 mM EDTA, 0.1% Tween 20, 2 mM DTT, 5% glycerol, 30 min room temperature; FP: 10 mM HEPES pH 7.5, 50 mM NaCl, 1 mM TCEP, 10 nM probe; conditions: protein: recombinant; tags: His tag (pNIC28-Bsa4), cleaved with TEV; label: 3' FITC on strand 1; blunt
# FOXN1 forkhead domain [3] = biological target: T2, FOXN1 forkhead domain; assay: X-ray crystallography; 1.6 A structure; crystals at pH 4.5; EMSA: 50 mM Tris-HCl pH 7.5, 25 mM NaCl, 0.5 mM EDTA, 0.1% Tween 20, 2 mM DTT, 5% glycerol, 30 min room temperature; FP: 10 mM HEPES pH 7.5, 50 mM NaCl, 1 mM TCEP, 10 nM probe; conditions: protein: recombinant; tags: His tag (pNIC28-Bsa4), cleaved with TEV; blunt
# FOXN1 1-614 [4] = biological target: T1, FOXN1 1-614; assay: EMSA; apparent Kd; multiple shifted species; EMSA: 50 mM Tris-HCl pH 7.5, 25 mM NaCl, 0.5 mM EDTA, 0.1% Tween 20, 2 mM DTT, 5% glycerol, 30 min room temperature; FP: 10 mM HEPES pH 7.5, 50 mM NaCl, 1 mM TCEP, 10 nM probe; conditions: protein: recombinant; tags: His tag (pNIC28-Bsa4), cleaved with TEV; label: 32P on forward strand (5', T4 PNK); blunt
# FOXN1 forkhead domain [5] = biological target: T2, FOXN1 forkhead domain; assay: EMSA; no significant binding over the concentration range tested; EMSA: 50 mM Tris-HCl pH 7.5, 25 mM NaCl, 0.5 mM EDTA, 0.1% Tween 20, 2 mM DTT, 5% glycerol, 30 min room temperature; FP: 10 mM HEPES pH 7.5, 50 mM NaCl, 1 mM TCEP, 10 nM probe; conditions: protein: recombinant; tags: His tag (pNIC28-Bsa4), cleaved with TEV; label: 32P on forward strand (5', T4 PNK); blunt
binder,measurement,setting,value
B1,Kd,FOXN1 1-614 [1],205 ± 21 nM
B2,Kd,FOXN1 1-614 [2],85 ± 11 nM
B3,binding result,FOXN1 forkhead domain [3],binds
B4,Kd,FOXN1 1-614 [4],82 ± 8 nM
same,binding result,FOXN1 forkhead domain [5],no binding
B5,Kd,FOXN1 1-614 [2],38 ± 3.3 nM
